From patent US20190225680A1 (NASCIENT, published 2019)
Substitutions are numbered along the chain they refer to.

B1: 165_13_C3 IgG4 (antibody, V domains shown)
VH: QVQLVESGGGLVQPGRSLRLSCAASGFTFDDYAMHWVRQAPGKGLEWVSGISGSGGSTYYADSVKGRFTISRDNAKNSLYLQMNSLRAEDTALYYCAKSYQSDEDAFDIWGQGTMVTVSS
VL: DIQMTQSPASLPTPVGDRVTITCRASQYIQGFLNWYQQKPGKAPKLLIYDASNLETGVPSRFSGSGSGTDFTLTISSLQPEDFATYYCQQSYSTPQTFGQGTKVDIKR
B2: B12 Fab (Fab, V domains shown)
VH: B1 VH with S99D, Y100I, Q101S, S102A, D103V, E104P, A106T
VL: B1 VL
notes: Monomeric Fab from a dual promoter Fab vector; also called B12 parental antibody

Key:
[1] = target: T1, mouse TNC rCd4-His-FBG (rat; mouse, UniProt P05540 207-386); assay: SPR off-rate screen, 25 C, IgG4 from supernatant captured on anti-human Fc, 15 nM antigen, 1:1 fit
T1 construct: domain: domains 3 and 4; also called Mu TNC; mouse TNC FBG
T1 sequence: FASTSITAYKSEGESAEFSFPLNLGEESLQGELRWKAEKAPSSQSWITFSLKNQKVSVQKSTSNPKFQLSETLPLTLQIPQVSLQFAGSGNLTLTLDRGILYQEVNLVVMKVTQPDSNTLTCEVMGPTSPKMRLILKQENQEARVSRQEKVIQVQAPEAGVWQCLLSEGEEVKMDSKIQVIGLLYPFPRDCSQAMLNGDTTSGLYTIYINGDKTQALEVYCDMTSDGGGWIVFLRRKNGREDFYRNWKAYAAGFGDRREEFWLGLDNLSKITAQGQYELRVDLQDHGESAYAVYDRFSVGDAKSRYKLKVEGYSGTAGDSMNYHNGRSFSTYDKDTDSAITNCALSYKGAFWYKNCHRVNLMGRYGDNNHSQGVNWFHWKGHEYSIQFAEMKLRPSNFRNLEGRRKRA

[2] = target: T2, human TNR rCd4-His-FBG (rat; human); assay: SPR, 37 C, purified IgG4 captured on anti-human Fc
T2 sequence: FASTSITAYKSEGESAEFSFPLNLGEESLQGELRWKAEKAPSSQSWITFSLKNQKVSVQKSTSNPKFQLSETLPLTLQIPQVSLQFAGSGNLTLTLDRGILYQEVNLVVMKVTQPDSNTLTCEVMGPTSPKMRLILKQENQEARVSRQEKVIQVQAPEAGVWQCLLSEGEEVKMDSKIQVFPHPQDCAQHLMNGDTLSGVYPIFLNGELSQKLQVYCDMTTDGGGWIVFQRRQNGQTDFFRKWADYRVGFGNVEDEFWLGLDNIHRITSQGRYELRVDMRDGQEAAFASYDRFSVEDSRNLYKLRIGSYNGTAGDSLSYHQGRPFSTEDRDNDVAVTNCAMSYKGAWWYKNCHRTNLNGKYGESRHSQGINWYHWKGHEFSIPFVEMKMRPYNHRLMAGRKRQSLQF

[3] = target: T2, human TNR rCd4-His-FBG (rat; human); assay: SPR off-rate screen, 25 C, IgG4 from supernatant captured on anti-human Fc, 100 nM antigen, 1:1 fit
[4] = target: T1, mouse TNC rCd4-His-FBG; assay: SPR, BIAcore T100, 37 C, IgG4 captured on anti-human Fc, rCD4-His-FBG injected, 1:1 fit
[5] = target: T3, dog TNC rCD4-His-FBG (rat; dog); assay: as above
T3 sequence: T1 sequence with I209L, T214A, S269H, Q284R, E288K, S289T, S304T, N322A, Y332F

[6] = target: T4, rat TNC rCd4-His-FBG (rat) (UniProt P05540); assay: as above
T4 sequence: T1 sequence with A252T

[7] = target: T2, human TNR rCd4-His-FBG (rat; human); assay: as above
[8] = target: T5, human TNC rCd4-His-FBG (rat; human); assay: as above
T5 sequence: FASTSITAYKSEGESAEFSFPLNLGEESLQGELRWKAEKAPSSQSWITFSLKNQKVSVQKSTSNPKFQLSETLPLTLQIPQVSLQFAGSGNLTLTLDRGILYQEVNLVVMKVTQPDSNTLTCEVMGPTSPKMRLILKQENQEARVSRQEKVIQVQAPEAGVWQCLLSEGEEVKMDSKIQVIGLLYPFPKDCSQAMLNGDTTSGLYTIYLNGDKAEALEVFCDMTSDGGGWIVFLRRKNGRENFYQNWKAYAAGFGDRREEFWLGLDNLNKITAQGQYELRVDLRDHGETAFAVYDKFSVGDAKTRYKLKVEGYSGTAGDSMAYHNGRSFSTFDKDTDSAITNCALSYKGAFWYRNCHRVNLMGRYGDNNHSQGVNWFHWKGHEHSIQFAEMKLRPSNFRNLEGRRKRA

[9] = target: T6, human TNR rCd4-His-FBG (rat; human, UniProt P05540 207-386); assay: SPR, BIAcore T100, 25 C, Fab captured, rCd4-FBG injected
T6 construct: domain: domains 3 and 4; also called Hu TNR; human TNR FBG
T6 sequence: T2 sequence
Procedure: Experiments were performed using a BIAcore T100 instrument with CM5 sensor chip according to the protocol provided with the Human Fab Capture Kit (GE, 28-9583-25). Varying concentrations of rCd4-FBG were injected into a flow-cell with immobilised Fab and a reference flow-cell. After reference signal subtraction, the data was fitted to a global 1:1 fit using theT100 BIAevaluation software.

| Binder | koff [1] [s⁻¹] | fold lower affinity for human TNR FBG than for human TNC FBG [2] [fold] | koff [3] [s⁻¹] | Kd [4] [nM] | koff [4] [s⁻¹] | kon [4] [M⁻¹ s⁻¹] | Kd [5] [nM] | koff [5] [s⁻¹] | kon [5] [M⁻¹ s⁻¹] | Kd [6] [nM] | koff [6] [s⁻¹] | kon [6] [M⁻¹ s⁻¹] | Kd [7] [nM] | koff [7] [s⁻¹] | kon [7] [M⁻¹ s⁻¹] | Kd [8] [nM] | koff [8] [s⁻¹] | kon [8] [M⁻¹ s⁻¹] | fold lower affinity for human TNR FBG than for human TNC FBG [9] [fold] |
| --- | --- | --- | --- | --- | --- | --- | --- | --- | --- | --- | --- | --- | --- | --- | --- | --- | --- | --- | --- |
| B1 | 3.3e-06 | > 70 | 0.012 | 0.46 | 0.000445 | 972000 | 1.8 | 0.0108 | 5.97e+06 | 1.22 | 0.00473 | 3.89e+06 | 35.8 | 0.0431 | 1.2e+06 | 0.072 | 0.00083 | 1.16e+07 |  |
| B2 |  |  |  |  |  |  |  |  |  |  |  |  |  |  |  |  |  |  | > 60 |
